2 molecules from PMC8643669 (Nucleic Acids Research, 2021) can be followed below.

Assay [1] concerns the target T1, CBP80, subunit of the purified recombinant CBC (human, UniProt Q09161 1-790).
T1 sequence: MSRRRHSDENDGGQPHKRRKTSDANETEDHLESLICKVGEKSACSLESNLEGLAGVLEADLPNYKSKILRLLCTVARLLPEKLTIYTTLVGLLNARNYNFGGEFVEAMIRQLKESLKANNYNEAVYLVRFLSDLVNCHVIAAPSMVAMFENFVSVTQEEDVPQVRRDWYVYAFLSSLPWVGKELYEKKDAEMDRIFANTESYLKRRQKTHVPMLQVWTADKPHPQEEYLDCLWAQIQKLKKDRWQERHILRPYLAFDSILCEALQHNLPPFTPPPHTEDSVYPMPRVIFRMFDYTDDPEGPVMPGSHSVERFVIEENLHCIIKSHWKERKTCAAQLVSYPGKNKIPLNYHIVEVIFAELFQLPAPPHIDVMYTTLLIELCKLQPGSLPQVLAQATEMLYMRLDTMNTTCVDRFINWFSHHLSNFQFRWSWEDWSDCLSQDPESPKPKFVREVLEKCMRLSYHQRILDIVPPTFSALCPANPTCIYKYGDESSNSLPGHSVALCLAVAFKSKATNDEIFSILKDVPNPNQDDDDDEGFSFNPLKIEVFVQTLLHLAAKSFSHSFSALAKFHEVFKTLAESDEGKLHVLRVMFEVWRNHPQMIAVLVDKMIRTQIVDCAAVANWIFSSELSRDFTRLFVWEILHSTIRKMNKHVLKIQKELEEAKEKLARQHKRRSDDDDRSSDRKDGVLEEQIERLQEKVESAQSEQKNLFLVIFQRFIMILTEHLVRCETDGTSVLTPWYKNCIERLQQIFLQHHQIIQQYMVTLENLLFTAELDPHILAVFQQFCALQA
Put plainly: far-Western, overlay or dot blot.

In assay [2] the target is T2, purified recombinant nuclear cap-binding complex (CBC; heterodimer of CBP80 and CBP20) (human, UniProt Q09161;P52298).
T2 sequence 1: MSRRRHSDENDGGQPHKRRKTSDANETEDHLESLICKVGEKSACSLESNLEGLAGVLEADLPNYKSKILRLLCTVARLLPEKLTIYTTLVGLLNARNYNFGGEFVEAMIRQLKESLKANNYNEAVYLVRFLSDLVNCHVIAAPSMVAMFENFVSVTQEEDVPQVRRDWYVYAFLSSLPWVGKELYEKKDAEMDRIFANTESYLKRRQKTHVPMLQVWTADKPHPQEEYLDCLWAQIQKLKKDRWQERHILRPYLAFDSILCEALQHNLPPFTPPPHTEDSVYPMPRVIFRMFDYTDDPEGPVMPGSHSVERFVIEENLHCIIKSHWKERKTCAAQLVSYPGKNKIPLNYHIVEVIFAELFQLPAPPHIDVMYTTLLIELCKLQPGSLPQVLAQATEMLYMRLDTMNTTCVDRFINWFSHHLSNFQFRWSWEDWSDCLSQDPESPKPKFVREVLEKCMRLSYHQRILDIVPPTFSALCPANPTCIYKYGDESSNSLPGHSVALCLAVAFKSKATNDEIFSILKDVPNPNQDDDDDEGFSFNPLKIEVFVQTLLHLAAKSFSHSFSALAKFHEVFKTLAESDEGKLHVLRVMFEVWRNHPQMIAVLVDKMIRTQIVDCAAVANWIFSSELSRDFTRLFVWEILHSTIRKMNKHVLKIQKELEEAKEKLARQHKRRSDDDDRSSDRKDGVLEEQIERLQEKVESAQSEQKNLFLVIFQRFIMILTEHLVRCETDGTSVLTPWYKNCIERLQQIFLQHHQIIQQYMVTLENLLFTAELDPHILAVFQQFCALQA
T2 sequence 2: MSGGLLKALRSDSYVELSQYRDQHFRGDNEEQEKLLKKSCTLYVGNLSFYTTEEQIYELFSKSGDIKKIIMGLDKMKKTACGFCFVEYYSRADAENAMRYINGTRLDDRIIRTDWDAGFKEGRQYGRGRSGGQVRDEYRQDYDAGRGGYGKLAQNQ
Put plainly: pull-down.

B1: FLAG-SRP54 full-length (p3×FLAG-SRP54-FL) (natural protein)
chain: MVLADLGRKITSALRSLSNATIINEEVLNAMLKEVCTALLEADVNIKLVKQLRENVKSAIDLEEMASGLNKRKMIQHAVFKELVKLVDPGVKAWTPTKGKQNVIMFVGLQGSGKTTTCSKLAYYYQRKGWKTCLICADTFRAGAFDQLKQNATKARIPFYGSYTEMDPVIIASEGVEKFKNENFEIIIVDTSGRHKQEDSLFEEMLQVANAIQPDNIVYVMDASIGQACEAQAKAFKDKVDVASVIVTKLDGHAKGGGALSAVAATKSPIIFIGTGEHIDDFEPFKTQPFISKLLGMGDIEGLIDKVNELKLDDNEALIEKLKHGQFTLRDMYEQFQNIMKMGPFSQILGMIPGFGTDFMSKGNEQESMARLKKLMTIMDSMNDQELDSTDGAKVFSKQPGRIQRVARGSGVSTRDVQELLTQYTKFAQMVKKMGGIKGLFKGGDMSKNVSQSQMAKLNQQMAKMMDPRVLHHMGGMAGLQSMMRQFQQGAAGNMKGMMGFNNM
For B1, the binding result in assay [1] is listed as “binds”.

B2: purified recombinant FLAG-SRP54-NG (residues 1-293) (domain or fragment)
chain: MVLADLGRKITSALRSLSNATIINEEVLNAMLKEVCTALLEADVNIKLVKQLRENVKSAIDLEEMASGLNKRKMIQHAVFKELVKLVDPGVKAWTPTKGKQNVIMFVGLQGSGKTTTCSKLAYYYQRKGWKTCLICADTFRAGAFDQLKQNATKARIPFYGSYTEMDPVIIASEGVEKFKNENFEIIIVDTSGRHKQEDSLFEEMLQVANAIQPDNIVYVMDASIGQACEAQAKAFKDKVDVASVIVTKLDGHAKGGGALSAVAATKSPIIFIGTGEHIDDFEPFKTQPFISK
Consider B2, for which the binding result in assay [2] is “binds”.
